Experimental data reported in the nanobody polyreactivity screen of Harvey et al. (2022).

Experiment: yeast display, Sf9 membrane polyspecificity reagent, FACS + sequencing; frameworks hold sequencing errors
How it was run: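 A nanobody's polyreactivity label depends on the gate it was sorted from. Yeast display cells were stained with 10% biotinylated, detergent-solubilized Sf9 membrane reagent for 1 hour at 4 °C, enriched on streptavidin microbeads and sorted by FACS. The low and high (top ~1%) gates were set on anti-HA fluorescence for expression and streptavidin fluorescence for reagent binding.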
In the case of “QVQLVESGGGLVQAGGILRLSCTASGFTLGHYAMGWYRQSPGKERELVAVITSGSSTNYADSVKGRFTISRDNAKNTVYLQMNSLKPEDTAVYYCAAEDQFFKWLYYFWGEGTQVTVSS”, the “polyreactivity (PSR sort gate)” value is reported as “low polyreactivity”. For “QVQLVESGGGLVQAGGILRLSSAASGLILPDYAMGWYRQAPGKERELVAAISEYAGSTYYADSVKGRFTISRDNAKNTVYLQMNSLKPEDTAVYYCAAEVWFYSWYFWYYDGEDYWGQGTQVTVSS”, the “polyreactivity (PSR sort gate)” value was “high polyreactivity”. In the case of “QVQLVESGGGLVQAGGILRLSWAASGFTFDSNAMGWYRQAPGKERELVASISSSGSTNYADCVKGRFTISRDNAKNTVDFQMNSLKPEDTAVYSCAAESRYPFIYEYWGQGTEVTVSS”, the “polyreactivity (PSR sort gate)” value is reported as “low polyreactivity”. In the case of “QVQLVESGGGLVQAGGILRLTCAASGSIFGTYAMGWYRTPPGKERELVSAITRRSGRTYYADSVKGRFTISRDNAKNTVNLQMNCLKQEDTAVYYCAKRPVIDDDYWGQGTQETVSS”, the “polyreactivity (PSR sort gate)” value is reported as “high polyreactivity”. For “QVQLVESGGGLVQAGGILRVSCAASGSTFRRYAMGWSRQAPGKERELVAAIRQRGTSTYYADSVKGRFTISRDNAKNTVYLQMNSLKPEDTAVYYCAAGPSLWLFNSWGQGTQVTVSS”, the “polyreactivity (PSR sort gate)” value was “high polyreactivity”. With “QVQLVESGGGLVQAGGILSLSCAASGIISIYYVMGWYRQAPGKERELVAAITSSGARTYYADSVKGRFTISRDNAKNTVYLQMNSLKPEDTAVYYCAAKAVHLAGYDYWGQGTQVTVSS” the “polyreactivity (PSR sort gate)” value was “high polyreactivity”. In the case of “QVQLVESGGGLVQAGGILSLSCAASGRIFVYYMGWYRQAPGKESELVAAISFGGGSTYYADSVKGRFTISRDNAKNTVYLQMNSLKPEDTAVYYCNADGDDLDWNYYLVQYDSWGQGTQVTVSS”, the “polyreactivity (PSR sort gate)” value is reported as “low polyreactivity”. For “QVQLVESGGGLVQAGGNLRLSCASSGIIFFKYAMGWYRPEPGKERELVAAITSGGSTYYADSVKWRFTISRDNAKKTVYLQMNSLKPEDTAVYYCAAAGGRFIRYCYWGQGTQVTVSS”, the “polyreactivity (PSR sort gate)” value was “high polyreactivity”. In the case of “QVQLVESGGGLVQAGGPLRLSCAASGRIVWNAMGWYRQAPGKEREFVASITWSVGSTYYADSVKGRFTISRDNAKNTVYLQMNSLKPEDTAVYYCAADSYSGYYYWGQGTQVTVSS”, the “polyreactivity (PSR sort gate)” value is reported as “high polyreactivity”. In the case of “QVQLVESGGGLVQAGGRHRLTCAASGRTVGRYAMGWYRQAPGKEREFVAAISNRVGRTYYADSVKGRFTISRDNAKNTVYLQMNSLKPEDTAVYYCAADTAHVNVNYWGQGTQVTVSS”, the “polyreactivity (PSR sort gate)” value is reported as “high polyreactivity”. For “QVQLVESGGGLVQAGGRLRFSCAASGNTFPHNTMGWYRKAPGKERELVSTNYADSVKGRFTISRDNAKNSVYLQMNSLKPEDTAVYYCHADGTFEYDYWGQGTQVTVSS”, the “polyreactivity (PSR sort gate)” value was “low polyreactivity”. In the case of “QVQLVESGGGLVQAGGRLRISCAASGSIFKGYARGWSRQAPGKERELVAAISGSGTSTYYADSVKGRFTISRDNAKNTVYLQMNSLKPEDTAVYYCATGWYTVFSSRMYSWGQGTQVTVSS”, the “polyreactivity (PSR sort gate)” value is reported as “high polyreactivity”. In the case of “QVQLVESGGGLVQAGGRLRISCAASGSIFKGYARGWSRQGPGKERELVAAISGSGTSTYYADSVKGRFTISRDNAKNTVYLQMNSLTPEDTAVYYCATGWYTVFSRRMYSWGQGTQVTVSS”, the “polyreactivity (PSR sort gate)” value is reported as “high polyreactivity”. With “QVQLVESGGGLVQAGGRLRISCAASGSTFYFNAMGWYRQAPGKERELVAAITRGGSTYADSVKGRFTISRDNAKYTVYLQMNSMKPEDTAVYYCNAVYGVYDFIYWGQGTQVTVSS” the “polyreactivity (PSR sort gate)” value was “low polyreactivity”. For “QVQLVESGGGLVQAGGRLRISCAASGTIFAYALGWYRPAPGKERELVAGISRRGGSTYYADSVKGRFTISRDNAKKTVYLQMKSLKPEDTAVYYCAADYYTLYPVYIKRYGYWGQGTQVTVSA”, the “polyreactivity (PSR sort gate)” value was “high polyreactivity”. With “QVQLVESGGGLVQAGGRLRLICAASGSTFRANIMRWSRQAPGKERELVAAITSGGGSTYYADSVKGRFTISRDNAKNTVYLQMNSLKPEDTAVYYCAARIYHDIDTRSYYWGQGTQVTVSS” the “polyreactivity (PSR sort gate)” value was “high polyreactivity”. With “QVQLVESGGGLVQAGGRLRLICAAYGSTFSLYALGWYRQAPGKERELVADINSGGGTYYADSVKGRFTISRDNAKNTVYLQMNSVKPEDTAVYYCNAPVARGEASYYWGHGTQVTVSS” the “polyreactivity (PSR sort gate)” value was “high polyreactivity”. With “QVQLVESGGGLVQAGGRLRLSCAASASTIVGNAMGWYRQAPGKERELVATISNSGGRTYYADSVKGRFTISRDNSKYTVYLQMNSLKPEDTAVYYCNADIYPHDGYPWQGDYDYWGQGTQVTVSS” the “polyreactivity (PSR sort gate)” value was “low polyreactivity”. For “QVQLVESGGGLVQAGGRLRLSCAASGFIIARNAMGWYRQAPGKERELVAASSASGGRTYYADSVKGRFTISRDNAKNTVYLQMNSLKPEDTAVYYCAARRDGRSGSFNYWGQGTQVTVSS”, the “polyreactivity (PSR sort gate)” value was “high polyreactivity”. With “QVQLVESGGGLVQAGGRLRLSCAASGFNFHYYAMGWYRQAPGKERELVAAISWSSGRTYYADSVKGRFTISRDNEKNTVYLQMNSLKPEDTAVYYCAASSYNRGDYWGQGTQVTVSS” the “polyreactivity (PSR sort gate)” value was “high polyreactivity”. With “QVQLVESGGGLVQAGGRLRLSCAASGFTFIRSAMGWYRQAPGKERELVAAISWSDDTTYYADSVKGRFTISRDNAKNTVYLQMNSLKPEDTAVYYCAAEVWYSYAEYDYWGQGTQVTVSS” the “polyreactivity (PSR sort gate)” value was “high polyreactivity”. For “QVQLVESGGGLVQAGGRLRLSCAASGFTFKRNAMGWYRQAPGKERELVAAITWSGGSTYYADSVKGRFTISRDNAKNTVYLQMNSLKPEDTAVYYCAALYRSRYYAGDYLGQGTQVTVSS”, the “polyreactivity (PSR sort gate)” value was “high polyreactivity”. In the case of “QVQLVESGGGLVQAGGRLRLSCAASGFTFLDYAMGWYRQAPGKERELVASISSSGGSTRFADSVKGRFTISRDNAKNTVYLQMNSLKPEDTAVYYCNADVDLFGAAYGYDYWGQGTQVTVSS”, the “polyreactivity (PSR sort gate)” value is reported as “low polyreactivity”. In the case of “QVQLVESGGGLVQAGGRLRLSCAASGFTFNRNAMGWYRQAPGKERELVAAISDSGDNTYYADSVKGRFTISRDNAKNTVYLQMNSLKPEDTAVYYCATSFYGFSYHWFDYWGQGTQVTVSS”, the “polyreactivity (PSR sort gate)” value is reported as “low polyreactivity”. In the case of “QVQLVESGGGLVQAGGRLRLSCAASGFTFPLYTMGWYRQEPGKERELVAAITWSGGSTYADSLKGRFTISRDNAKNTVYLQMNSLNPEDTEVYYCNRRLQPRGAGHNSWGQGTQVTVSS”, the “polyreactivity (PSR sort gate)” value is reported as “high polyreactivity”. In the case of “QVQLVESGGGLVQAGGRLRLSCAASGFTFRYYAMGWYRQAPGKERELVAAISGSGVSTYYADSVKGRFTISRDNAKNTVYLQMNSLKPEDTAVYYCAAGYPGHYYKYDYWGQGTQVTVSS”, the “polyreactivity (PSR sort gate)” value is reported as “high polyreactivity”. With “QVQLVESGGGLVQAGGRLRLSCAASGFTFSRNTLGWYRQAPGKERELVARITKRGGTTYYADSVKGRFTISRDNAKNTVYLQMNSLKPEDTAVYYCATVGQPSYRAPDGFNYWGQGTQVTVSS” the “polyreactivity (PSR sort gate)” value was “high polyreactivity”. For “QVQLVESGGGLVQAGGRLRLSCAASGFTFYDNAMGWYRQAPGKERELVAGINSGDSTFYAVSVKGRITISRDNAKNTVYLQMTSLKPEDTGFYYGAADWAWLQWSYDYWGQGTQVTVSS”, the “polyreactivity (PSR sort gate)” value was “low polyreactivity”. With “QVQLVESGGGLVQAGGRLRLSCAASGFTFYYYAMGWYRQAPGKEREMVAAISRSGGSTYYADSVKGRFTISRDNAKNTVYLQMNSLKPEDTAVYYCNTLRRTWFQENDYWGQGTQVTVSS” the “polyreactivity (PSR sort gate)” value was “high polyreactivity”. With “QVQLVESGGGLVQAGGRLRLSCAASGFTIRLYTMGWYRQAPGKERELVAAITYSGDSTYYADSVKGRFTISRDNAKNTVYLQMNSLKPVDTAVYYCAARKYYARYYWGQGTQVTVSS” the “polyreactivity (PSR sort gate)” value was “high polyreactivity”. With “QVQLVESGGGLVQAGGRLRLSCAASGFTLVGYAMGWSRQAPGKERELVAAISSGGGSTYYADSVKGRFTISRDNAKNTVYLQMNSLKPEDTAVYYCAVYVDYYGYGYWGQGTQVTVSS” the “polyreactivity (PSR sort gate)” value was “high polyreactivity”. In the case of “QVQLVESGGGLVQAGGRLRLSCAASGGTFRLYTMASYRQAPGKERELVAGISSSSGSTYYADSVKGRFTISRDNAKNTVYLQMNSLKPEDTAVYYCAAYWPRSRYDYWGQGTQVTVSS”, the “polyreactivity (PSR sort gate)” value is reported as “high polyreactivity”. In the case of “QVQLVESGGGLVQAGGRLRLSCAASGISFRFNAMGWYRQAPGKEREFVAAITYSGDSTYDADSVMGRFTISRDNAKNTVYLQKNSLKPEDTAVYYCAADYYAIYRRIFYYWGQGTQVTVSS”, the “polyreactivity (PSR sort gate)” value is reported as “low polyreactivity”. In the case of “QVQLVESGGGLVQAGGRLRLSCAASGITFFWNAMGWYRQAPGKERELVAAISSGAGTTYADSVKGRFTISRDNAKNTVYLQMNSLKPEDTAVYYCAKRVDAYGWWGRSSGVLSDYWGQGTQVTVSS”, the “polyreactivity (PSR sort gate)” value is reported as “low polyreactivity”. For “QVQLVESGGGLVQAGGRLRLSCAASGITFLNYAMGWYRPAPRKERELVAAISWSGGRTYYADSVKGRFTISRDNAKNTVFLQMNSLKPEDNAVYYCAADRGVNSYGYWGQGTQVTVSS”, the “polyreactivity (PSR sort gate)” value was “high polyreactivity”. In the case of “QVQLVESGGGLVQAGGRLRLSCAASGITFRSYAMGWYRQAPGKESELVAAIRSGGSTSYADSVKGRFTISRDNAKNTVYLQMNSLKPEDTAVYYCAAGGYVPLPDMTFWKFGYWGQGTQVTVSS”, the “polyreactivity (PSR sort gate)” value is reported as “low polyreactivity”. With “QVQLVESGGGLVQAGGRLRLSCAASGITFRYYAMGWYRQAPGKERELVAAITRSGTSTYYADSVKGRFTISRDNAKNTVYLQMNSLKPEDTAVYYCNAEYYHSSTGDDFDYWGQGTQVTVSS” the “polyreactivity (PSR sort gate)” value was “low polyreactivity”. In the case of “QVQLVESGGGLVQAGGRLRLSCAASGITFYHYAMGWYRQAPGKERELVAAITRSGGRTYYAVSVKGRFTISRDTANNTVYVEMYSLKPEVTAVYYSAARWQKTAGRYYYWGQGTQVTGSS”, the “polyreactivity (PSR sort gate)” value is reported as “high polyreactivity”. In the case of “QVQLVESGGGLVQAGGRLRLSCAASGITFYRYAMGWYIQAPGKERELVASISSRGSSSYYADSVKGRFTISRDNAKNTVYLQRNSLKPEDTAVYYCAKSRGSRGFVASTYNYWGQGTQVTVSS”, the “polyreactivity (PSR sort gate)” value is reported as “high polyreactivity”. For “QVQLVESGGGLVQAGGRLRLSCAASGLIFYDNMGWYRQPPGKERELVAAITWSGGSTYYADSVKGRFTISRDNAKNTVYLQMNSLKPEDTAVSYCNADLDSGYGSYDYWGQGTQVTVSS”, the “polyreactivity (PSR sort gate)” value was “low polyreactivity”. In the case of “QVQLVESGGGLVQAGGRLRLSCAASGLIIEWYAMGWFRQAPGKERELVAAITGRGSSTFYADSVKGRFTISRDNAKNTVYLQMNSLKPEDTGVYYCAVATVKQYRSDYWGQGTQVTVSS”, the “polyreactivity (PSR sort gate)” value is reported as “low polyreactivity”. For “QVQLVESGGGLVQAGGRLRLSCAASGLIIKLYAMGWYRQAPGKERELVAAITDRGGSTYYADSVKGRFTISRDNAKNTVYLQMNSLKPEDTAVYYCAAPYAGWRDGGDYWGQGTQVTVSS”, the “polyreactivity (PSR sort gate)” value was “low polyreactivity”. For “QVQLVESGGGLVQAGGRLRLSCAASGLILSSNALGWYRQAPGKARELVAAITWDGDRTYADSVKGRFTISRDNAKNTVYLQQNSLKPEDTAVYYCAADKQYYWYDWSYEYWGQGTQVTVSW”, the “polyreactivity (PSR sort gate)” value was “low polyreactivity”.
